Laboratory results as given in article PMC7392005, “Fructose-1, 6-bisphosphatase 1 interacts with NF-κB p65 to regulate breast tumorigenesis via PIM2 induced phosphorylation” (Theranostics, 2020).

Columns and labels:
[1] = target: T1, GST-tagged FBP1 (UniProt P09467 1-338); assay: pull-down; GST pull-down: purified GST-tagged protein (or GST) mixed with His-tagged protein, both expressed in E. coli BL21 (DE3); details: both partners purified
T1 construct: fructose-1,6-bisphosphatase 1 (FBP1); also called GST-FBP1; source: E. coli BL21 (DE3), purified
T1 sequence (looked up): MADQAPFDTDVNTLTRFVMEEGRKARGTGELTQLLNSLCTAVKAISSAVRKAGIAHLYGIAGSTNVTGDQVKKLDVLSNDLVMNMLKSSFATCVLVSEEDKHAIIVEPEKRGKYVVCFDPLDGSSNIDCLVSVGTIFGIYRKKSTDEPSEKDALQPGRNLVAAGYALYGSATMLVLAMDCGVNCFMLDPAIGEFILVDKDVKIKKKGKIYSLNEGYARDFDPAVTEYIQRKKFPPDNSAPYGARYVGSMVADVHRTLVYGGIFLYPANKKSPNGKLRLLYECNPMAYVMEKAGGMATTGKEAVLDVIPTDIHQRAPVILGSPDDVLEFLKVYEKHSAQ

[2] = target: T2, GST-tagged p65 (UniProt Q04206 1-551); assay: as above; details: both partners purified
T2 construct: NF-κB p65 (RelA); also called GST-p65; source: E. coli BL21 (DE3), purified
T2 sequence (Q04206 whole entry): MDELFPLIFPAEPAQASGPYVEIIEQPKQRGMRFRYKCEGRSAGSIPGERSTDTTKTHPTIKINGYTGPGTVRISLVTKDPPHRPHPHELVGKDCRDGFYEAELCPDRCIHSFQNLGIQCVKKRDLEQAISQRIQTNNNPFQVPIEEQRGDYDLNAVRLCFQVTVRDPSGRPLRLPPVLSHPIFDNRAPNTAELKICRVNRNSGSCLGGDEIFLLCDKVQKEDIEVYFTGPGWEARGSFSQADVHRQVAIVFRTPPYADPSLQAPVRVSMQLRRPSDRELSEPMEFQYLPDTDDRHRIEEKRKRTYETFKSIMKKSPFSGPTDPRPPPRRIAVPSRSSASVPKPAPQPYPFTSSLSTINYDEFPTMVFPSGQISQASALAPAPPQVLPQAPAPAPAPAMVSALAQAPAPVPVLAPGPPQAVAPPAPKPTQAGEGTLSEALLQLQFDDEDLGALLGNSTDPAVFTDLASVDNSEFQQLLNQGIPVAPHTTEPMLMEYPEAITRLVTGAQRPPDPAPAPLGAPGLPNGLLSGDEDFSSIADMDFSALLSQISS

B1: His-tagged PIM2 (enzyme)
chain: not shown
notes: serine/threonine kinase PIM2; also called His-PIM2; source: E. coli BL21 (DE3), purified
[1]
  binding result: binds

B2: His-tagged FBP1 (enzyme, UniProt P09467 1-338, looked up)
chain: MADQAPFDTDVNTLTRFVMEEGRKARGTGELTQLLNSLCTAVKAISSAVRKAGIAHLYGIAGSTNVTGDQVKKLDVLSNDLVMNMLKSSFATCVLVSEEDKHAIIVEPEKRGKYVVCFDPLDGSSNIDCLVSVGTIFGIYRKKSTDEPSEKDALQPGRNLVAAGYALYGSATMLVLAMDCGVNCFMLDPAIGEFILVDKDVKIKKKGKIYSLNEGYARDFDPAVTEYIQRKKFPPDNSAPYGARYVGSMVADVHRTLVYGGIFLYPANKKSPNGKLRLLYECNPMAYVMEKAGGMATTGKEAVLDVIPTDIHQRAPVILGSPDDVLEFLKVYEKHSAQ
notes: fructose-1,6-bisphosphatase 1 (FBP1); also called His-FBP1; source: E. coli BL21 (DE3)
[2]
  binding result: binds
